± gives the uncertainty stated by the source.

The series is described as follows: amyloid nucleation score (Sup35N fusion, yeast selection) (log enrichment); library NNK3; higher = more nucleation; inactive = no reads after selection. In outline: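 Three technical output replicates were used for random libraries. Psi-negative yeast expressing peptides of 20 random codons fused to Sup35N were induced with 100 μM copper sulfate for 24 hours and grown 7 days at 30°C on medium lacking adenine and uracil, and input and output plasmid inserts were Illumina-sequenced, excluding sequences with under 100 input reads. The nucleation score is the DiMSum log enrichment of output over input reads, centred on the mode score of non-aggregating sequences.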

Take CVNTIFTRRFWNEGSIPAGL: the amyloid nucleation score result is “inactive”. As for SGVYLTNNVWGFLYRATISG, the amyloid nucleation score result is “inactive”. With FVSFGLGTMFDLRA the entry was “inactive”; with LMLEASCCSHAEFPHGVKMR, “inactive”. As for LLLFRKRLMLPRVLQQVPRH, the entry is “inactive”. As for FWKLNFITIMCG, the figure is -0.34 ± 1.

In turn, SVLWLVCMDCHPQKSVSCD showed an amyloid nucleation score of 0.863 ± 0.25. As for PFDHTSHNVVRKLLSSELLR, the entry is “inactive”. For the substance GSILWGVNMRFLNITAGCDY, the amyloid nucleation score entry is “inactive”. As for RHWIWLMQWKD, the figure is 1.11 ± 0.14; as for YFLICIQVHKSMRNCPFYVS, “inactive”; as for LVYCFAYRVVHSNCHLESC, “inactive”. With FIYASCDNHKIDKRYVYLLM the entry was “inactive”; with SRLNFVCRGGSSAVFRRKAH, “inactive”. With GSYWKHVWLRYTSHGLTPQW the entry was “inactive”; with IGMYNEGFGMVLMTCPRLFF, 2.09 ± 0.077; with DNEEKLIGRSL, “inactive”. For WKRNFIW, the amyloid nucleation score entry was “inactive”.

On to SCYTMAFPVLWVHAQYCMNK, for which the amyloid nucleation score entry is “inactive”. As for AMIMSFFWRKVT, the entry is “inactive”; as for DNAVVEEYIIEVAKSFWTDG, “inactive”; as for TRFSVDVRIFWIINYFLWLL, “inactive”. As for NLAFTNVKVWVWSFSLLLYC, the entry is “inactive”; as for LGCREDFCERIGCVLRVMLE, “inactive”; as for NVTTNRVTKLLAN, “inactive”.

YTYWG: the amyloid nucleation score result was “inactive”. For the substance CPVRGPKVVIQCMMLSILTV, the amyloid nucleation score entry is “inactive”.

As to YSGTFDFLIKA, the amyloid nucleation score entry is “inactive”. With QESLDANFGLIVCYADLAED the entry was “inactive”; with RHRASGLFP, “inactive”. As for SYWSYSSTFSILLSDSFAIS, the entry is “inactive”. Regarding FVNQFLQKFMNLDKYIKLSH, the amyloid nucleation score entry was “inactive”. With IFIMKARSKFPRVPFFQEFP the figure was 1.23 ± 0.13; with QHALCSTAIRILLSV, “inactive”.

Turning to YVKPIGYTIFLWTGLGSP, the amyloid nucleation score result is “inactive”. As for VTWIYSSNGVWINGDKSFML, the figure is 1.22 ± 0.079.

With TVSYRTTIWWRSINFNRRAL, the amyloid nucleation score result is “inactive”. As for TSDVEVSRMIVCIWTSFIYQ, the figure is 0.142 ± 0.52; as for GCVCQLR, “inactive”; as for LKDLGYELIILAFKRLFLCC, “inactive”. With TEFPQEEPGTSLAQFP the figure was -0.69 ± 1.1; with YVYRSRFKQDLRGFLFNFTY, “inactive”.

With YNYKSLMHLIGYDNRIAESR, the amyloid nucleation score result is “inactive”. As for LCMADYVRGTWVYVPYFWMC, the entry is “inactive”.

As to NSGLSG, the amyloid nucleation score entry was “inactive”. As for SWFGLAIRSV, the entry is “inactive”. With GCSGVVVGCWRDPRICWLWW, the amyloid nucleation score entry was “inactive”. As for RPAHVIICYNLSYCNKWLHS, the figure is 2.04 ± 0.071; as for SSSSIVLDGLTFWLINTVTT, 0.598 ± 0.21; as for TGISSNHKFMESIDSYVGTP, “inactive”. With FEYNRQYTRLSSVRVRIRGS the entry was “inactive”; with NFSMCINRNKVPCVHLLDTL, “inactive”.

With HFCLEYTLNVTMHAWTL, the amyloid nucleation score result is “inactive”.

As for DFPIGYHHNVMI, the amyloid nucleation score result was “inactive”. With VYYSWVICSMERTKSWSMSS the figure was -0.227 ± 0.75; with QKVLLWTSGPSSSRHRTEEF, “inactive”. With SCFKDDCVGLLYYQSWSNDS the figure was 0.501 ± 0.33. On to TIIDGLKCFFPAFFME, for which the amyloid nucleation score result was “inactive”. With LVQIPYTDDVRLKGMINP the entry was “inactive”.

For the substance LSCVRRSSLDSC, the amyloid nucleation score entry was “inactive”. As for MIMTMTAGFFLELLW, the entry is “inactive”; as for TLNFMWASEVLVSMSVSNQL, “inactive”. As for CSAFAYRSSWRFAWNTIFDY, the amyloid nucleation score result is “inactive”.

As to RLEFKESRMGLLVLGDN, the amyloid nucleation score entry was “inactive”. For TADDNVIRLAYFNVTTPLWF, the amyloid nucleation score result was “inactive”. With LNFEATSYLTMRYDLSYVRF the entry was “inactive”; with SFFIALVNIFRCLN, 2.56 ± 0.059; with KGAFEMRG, -0.277 ± 1.1.

As to GNMKQWSIPPHIWTGQPPLM, the amyloid nucleation score result was “inactive”.

Take IVTLNYQLMYKMPKLLWSSN: the amyloid nucleation score result was “inactive”. In turn, GMGCTMLNYLMLWESFDTRP gave an amyloid nucleation score of 0.586 ± 0.17. As for TCMPRFSALYICSGTLDKKL, the entry is “inactive”; as for LFWSWYGGWKLNWGI, 0.661 ± 0.14; as for DFSNILLGTNQNNAVSAGSG, “inactive”. With SLNEHNAGGIVTLHWQSIES the entry was “inactive”; with YHDFRMLFLWVVWSIVSIRS, “inactive”; with WFSNVGVVEVASSRCREWGI, “inactive”. Regarding FVKLIYWLGAWVSTLCG, the amyloid nucleation score result was “inactive”.

RMFFYWDEFYSLIVGVMSGL: the amyloid nucleation score entry was “inactive”. As for NLTINVVAVQFLFMTTGY, the figure is 2.63 ± 0.08; as for YNECYWK, “inactive”. As for FVSLSRNLNCTPRL, the entry is “inactive”; as for EKDMFQNVLLVKAYD, “inactive”; as for TLFLFIMVMGYSLANLVDSS, “inactive”. With SKTGGFFNAVHASCPGVPLQ the entry was “inactive”. Turning to SSPRYVCWNF, the amyloid nucleation score entry is “inactive”. In turn, KTIGILLNCIGWFVVGLPGS registered an amyloid nucleation score of 0.863 ± 0.21. For the substance CKVTHSLI, the amyloid nucleation score result is “inactive”. As for NWVAKMGFVHGSSKRYSPPK, the figure is 0.111 ± 0.61; as for PEGPDLTLILAIKPKLSCRG, “inactive”; as for QTSIPGFDTTTLRVPLAFFG, “inactive”. With NNGSSRYMWSSYFLVGY the entry was “inactive”. Take NVNWIRFDFHFVFV: the amyloid nucleation score worked out at 2 ± 0.071. As for ERQNMSYMGHKKEYLNHYFW, the entry is “inactive”; as for GFRYLRTDNYMPCRGESVGW, “inactive”. With YHIRR the entry was “inactive”; with FTYCRASRSITMQYVCVICT, “inactive”. As for WNDRKSYLYSAIAMKARSVY, the entry is “inactive”; as for ILKLQEQTSNGLAVSNESSC, “inactive”; as for FTVSFRYSLCCRDGDGESEC, 1.97 ± 0.087. For GLKKWLFD, the amyloid nucleation score entry is “inactive”. For NSTINAPRLTRPGGPCSRKV, the amyloid nucleation score result was “inactive”. As for TYGQLCIKVTGLGHFYRPMG, the figure is 0.922 ± 0.18. As for ALSRMGEFEDYCLTMGKKVF, the entry is “inactive”. With CRCNVSLGILFKRGMSKRRI the figure was 1.01 ± 0.11; with YRIESFIGY, “inactive”. Consider NTLWYIWGG, for which the amyloid nucleation score result is “inactive”. On to KDMIYSHDKLKFQKKNKHMQ, for which the amyloid nucleation score entry is “inactive”. As for NFFWFYWIWKSSGGYTGWLL, the entry is “inactive”.

With GSMLTDIVCFKYKVWDPIIL, the amyloid nucleation score result was “inactive”.

With LMPWTMSIWGL, the amyloid nucleation score result was “inactive”. As for HFSFLL, the figure is 1.37 ± 0.084. With IGRPGVRYNLKCRGRIRG the entry was “inactive”; with PLSNGELFRNATLNDGIWGE, “inactive”; with SRACSTHCIFEGTWSG, “inactive”.

Turning to CSSSYMGQDHVFVSDSARCS, the amyloid nucleation score result is “inactive”. In the case of MLSISFLYFATTVGVDVTLG, the amyloid nucleation score entry was “inactive”. With NSRHLDIFRMFDNFSVCHQP the entry was “inactive”.

On to DLFDSRVVSSDAVSCYYAAS, for which the amyloid nucleation score entry was “inactive”. As for LDCHVS, the entry is “inactive”; as for GDPNPHYL, “inactive”; as for WIMWTLAIKIIMCW, “inactive”. As for GEYMRLYVSVTGYTVYYSVR, the figure is 0.882 ± 0.2; as for CLGPKCATKDIFL, “inactive”. With TWGIG the entry was “inactive”; with YLRKVSYNMHCRNWSWGDWS, “inactive”; with WIERAAAALVLDLLCSKRRA, “inactive”. Take LYRRVHVMGPVSHLDKLERC: the amyloid nucleation score entry was “inactive”. With LVLTSPFRYSIV the entry was “inactive”; with FGNGSMNRDRSSM, “inactive”.
